Measured values reported in patent US20120315277A1, “Compositions and Methods for the Therapy and Diagnosis of Influenza” (priority 2011, published 2012).
Where a chain is given by its changes, count along the chain named.

How the values were obtained:
[1] = target: M2 protein on influenza A/Puerto Rico/8/34 (H1N1) virus particles (influenza A virus A/Puerto Rico/8/34 (H1N1)) (UniProt P06821); test: SPR, Fab on influenza virus (A/Puerto Rico/8/34)
[2] = target: M2 protein on influenza A/Puerto Rico/8/34 (H1N1) virus particles (influenza A virus A/Puerto Rico/8/34 (H1N1)) (UniProt P06821); test: FAb fragments on whole PR8 virus
[3] = target: T1, M2 protein on influenza A/Puerto Rico/8/34 (H1N1) virus particles (influenza A virus A/Puerto Rico/8/34 …, UniProt P06821 1-97); test: SPR, Fab on influenza virus (A/Puerto Rico/8/34)
[4] = target: T1, M2 protein on influenza A/Puerto …; test: FAb fragments on whole PR8 virus
[5] = test system: Influenza A (A/Puerto Rico/8/34) virus; assay type: binding, influenza A virus H1N1
[6] = test system: M2 (A/Hong Kong/483/97) expressed on CHO cells; assay type: binding, influenza A virus
[7] = target: T2, M2 protein of influenza A/Fort Worth/1/50 (H1N1), expressed on 293 cells (influenza A virus A/Fort Worth/1/50 …); test: cell staining images, 293-HEK cells stably expressing M2
T2 chain: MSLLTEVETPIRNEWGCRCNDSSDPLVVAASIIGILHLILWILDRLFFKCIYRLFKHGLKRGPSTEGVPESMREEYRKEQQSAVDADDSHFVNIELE

## cH14C2 Fab
[1]
  Kd: 4000 nM
  koff: 0.0018 s⁻¹
  kon: 500 M⁻¹ s⁻¹
[2]
  Kd: 4000 nM
  koff: 0.00286 s⁻¹
  kon: 500 M⁻¹ s⁻¹

B1: TCN-031 Fab (Fab, V domains shown)
VH: EVQLVESGGGLVQPGGSLRISCAASGFTVSSNYMSWVRQAPGKGLEWVSVIYSGGSTYYADSVKGRFSFSRDNSKNTVFLQMNSLRAEDTAVYYCARCLSRMRGYGLDVWGQGTTVTVS
VL: DIQMTQSPSSLSASVGDRVTITCRTSQSISSYLNWYQQKPGKAPKLLIYAASSLQSGVPSRFSGSGSGTDFTLTISGLQPEDFATYYCQQSYSMPAFGQGTKLEIK
[3]
  Kd: 14 nM
  koff: 0.014 s⁻¹
  kon: 1e+06 M⁻¹ s⁻¹
[4]
  Kd: 14 nM
  koff: 0.014 s⁻¹
  kon: 1e+06 M⁻¹ s⁻¹

B2: 3245_O19 (antibody, V domains shown)
VH: EVQLVESGGGLVQPGGSLRLSCTASGLSVSSTYMNWVRQAPGKGLEWVSVFYSETRTYYADSVKGRFTVSRHNSNNTLYLQMNSLRVEDTAVYYCARVQRLSYGMDVWGQGTTVTVSS
VL: DIQMTQSPSSLSASVGDRVTITCRASQSISTYLNWYQKRPGKAPKLLVYGASTLQSGVPSRFSGSGSGTDFTLTIASLQPEDSATYYCQQTYSIPLFGQGTRLEIK
[5]
  Virus ELISA OD A450: 3.51
[6]
  FACS M2-HK MFI: 919

B3: 3244_H04 (antibody, V domains shown)
VH: B2 VH with V87A
VL: B2 VL with T53S, T85V
[5]
  Virus ELISA OD A450: 3.31
[6]
  FACS M2-HK MFI: 963

B4: 21B15 (antibody, V domains shown)
VH: QVQLQESGPGLVKPSETLSLTCTVSGSSISNYYWSWIRQSPGKGLEWIGFIYYGGNTKYNPSLKSRVTISQDTSKSQVSLTMSSVTAAESAVYFCARASCSGGYCILDYWGQGTLVTVS
VL: DIQVTQSPSSLSASVGDRVTITCRASQNIYKYLNWYQQRPGKAPKGLISAASGLQSGVPSRFSGSGSGTDFTLTITSLQPEDFATYYCQQSYSPPLTFGGGTRVDIK
[7]
  binding result: binds

B5: TCN-032 Fab (Fab, V domains shown)
VH: B4 VH
VL: B4 VL with V4M, D105E
[3]
  Kd: 3.2 nM
  koff: 0.0023 s⁻¹
  kon: 740000 M⁻¹ s⁻¹
[4]
  Kd: 3 nM
  koff: 0.0023 s⁻¹
  kon: 740000 M⁻¹ s⁻¹
